Measurements as given in article PMC9482650, “Quantitative fragmentomics allow affinity mapping of interactomes” (Nature Communications, 2022).

Legend:
Experiment in all cases: holdup assay
Design in all cases: key: below the threshold = too weak to quantify, mostly under pKd 3.1 to 4
PARD3_3, Q8TEW0 = target: PARD3_3, Q8TEW0
LDB3, O75112 = target: LDB3, O75112
GRIP2_5, Q9C0E4 = target: GRIP2_5, Q9C0E4
Inadl_10, Q8NI35 = target: Inadl_10, Q8NI35
MPP2, Q14168 = target: T1, MPP2, Q14168
T1 sequence (Q14168 180-250, limits assumed, looked up): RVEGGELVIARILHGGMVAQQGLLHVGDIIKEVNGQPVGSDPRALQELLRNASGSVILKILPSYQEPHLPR

DLG1_1, Q12959 = target: DLG1_1, Q12959
MPDZ_10, O75970 = target: T2, MPDZ_10, O75970
T2 sequence (O75970 1624-1722, limits assumed, looked up): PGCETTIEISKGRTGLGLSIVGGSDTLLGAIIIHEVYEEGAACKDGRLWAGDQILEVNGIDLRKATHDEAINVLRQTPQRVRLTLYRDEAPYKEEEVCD

GORASP1, Q9BQQ3 = target: GORASP1, Q9BQQ3
FRMPD1, Q5SYB0 = target: T3, FRMPD1, Q5SYB0
T3 sequence (Q5SYB0 52-145, limits assumed, looked up): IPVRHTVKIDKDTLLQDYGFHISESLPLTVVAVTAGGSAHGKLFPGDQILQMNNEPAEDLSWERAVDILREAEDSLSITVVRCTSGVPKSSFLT

DLG3_1, Q92796 = target: T4, DLG3_1, Q92796
T4 sequence (Q92796 125-227, limits assumed, looked up): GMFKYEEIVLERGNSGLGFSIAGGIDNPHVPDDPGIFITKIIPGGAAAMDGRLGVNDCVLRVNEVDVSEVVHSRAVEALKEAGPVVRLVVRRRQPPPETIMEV

TX1BP3, O14907 = target: T5, TX1BP3, O14907
T5 sequence (O14907 10-122, limits assumed, looked up): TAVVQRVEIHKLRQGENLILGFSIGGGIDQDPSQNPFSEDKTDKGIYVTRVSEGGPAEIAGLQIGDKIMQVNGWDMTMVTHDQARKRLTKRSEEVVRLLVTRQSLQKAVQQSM

SCRIB_3, Q14160 = target: SCRIB_3, Q14160
APBA2_2, Q99767 = target: T6, APBA2_2, Q99767
T6 sequence (Q99767 654-744, limits assumed, looked up): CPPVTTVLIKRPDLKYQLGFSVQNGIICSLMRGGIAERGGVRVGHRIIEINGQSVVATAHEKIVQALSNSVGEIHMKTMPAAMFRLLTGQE

GRIP2_6, Q9C0E4 = target: GRIP2_6, Q9C0E4
DLG2_3, Q15700 = target: DLG2_3, Q15700
SIPA1L2, Q9P2F8 = target: T7, SIPA1L2, Q9P2F8
T7 sequence (Q9P2F8 945-1036, limits assumed, looked up): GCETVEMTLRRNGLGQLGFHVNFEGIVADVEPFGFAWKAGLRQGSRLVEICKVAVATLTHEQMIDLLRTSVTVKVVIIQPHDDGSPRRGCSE

GRIP2_4, Q9C0E4 = target: GRIP2_4, Q9C0E4
NHERF4_2, Q86UT5 = target: NHERF4_2, Q86UT5
GRIP2_7, Q9C0E4 = target: GRIP2_7, Q9C0E4
MAGI1_2, Q96QZ7 = target: MAGI1_2, Q96QZ7
NOS1, P29475 = target: NOS1, P29475
DVL3, Q92997 = target: T8, DVL3, Q92997
T8 sequence (Q92997 244-331, limits assumed, looked up): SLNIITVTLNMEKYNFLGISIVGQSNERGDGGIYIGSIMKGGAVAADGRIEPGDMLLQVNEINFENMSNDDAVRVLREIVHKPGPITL

LNX2_2, Q8N448 = target: T9, LNX2_2, Q8N448
T9 sequence (Q8N448 334-432, limits assumed, looked up): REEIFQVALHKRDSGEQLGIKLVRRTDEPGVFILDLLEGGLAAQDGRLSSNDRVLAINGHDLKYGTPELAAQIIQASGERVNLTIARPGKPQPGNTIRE

DFNB31_2, Q9P202 = target: T10, DFNB31_2, Q9P202
T10 sequence (Q9P202 274-371, limits assumed, looked up): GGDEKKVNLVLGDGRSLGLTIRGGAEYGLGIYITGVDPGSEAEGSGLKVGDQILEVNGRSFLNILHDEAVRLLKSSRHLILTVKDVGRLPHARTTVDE

LIN7C, Q9NUP9 = target: T11, LIN7C, Q9NUP9
T11 sequence (Q9NUP9 88-185, limits assumed, looked up): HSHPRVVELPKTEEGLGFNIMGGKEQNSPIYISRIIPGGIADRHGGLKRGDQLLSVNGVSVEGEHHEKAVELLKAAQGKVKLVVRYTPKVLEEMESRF

HTRA2, O43464 = target: HTRA2, O43464
[1] = plain residues with an end cap or a label only (N-terminal biotin on a linker: ahx)
[2] = plain residues with an end cap or a label only (N-terminal biotin on a linker: ado-ado)
[3] = plain residues with an end cap or a label only (N-terminal biotin on a linker: ttds)

Chain of PARD3_3, Q8TEW0 (Q8TEW0 582-685): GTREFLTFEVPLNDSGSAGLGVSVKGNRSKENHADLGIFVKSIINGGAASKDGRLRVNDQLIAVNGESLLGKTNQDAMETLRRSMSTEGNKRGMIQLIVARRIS
Chain of GORASP1, Q9BQQ3 (Q9BQQ3 1-208): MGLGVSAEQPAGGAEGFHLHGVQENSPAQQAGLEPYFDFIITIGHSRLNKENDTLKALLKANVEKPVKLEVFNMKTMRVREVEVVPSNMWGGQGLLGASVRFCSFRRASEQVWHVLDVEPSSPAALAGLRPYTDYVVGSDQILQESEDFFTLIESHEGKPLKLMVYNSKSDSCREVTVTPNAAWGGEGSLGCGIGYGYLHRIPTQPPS
Chain of GRIP2_7, Q9C0E4 (Q9C0E4 934-1023): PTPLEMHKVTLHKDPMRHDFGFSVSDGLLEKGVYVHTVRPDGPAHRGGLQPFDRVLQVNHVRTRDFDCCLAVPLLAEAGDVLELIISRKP
Chain of GRIP2_4, Q9C0E4 (Q9C0E4 446-548): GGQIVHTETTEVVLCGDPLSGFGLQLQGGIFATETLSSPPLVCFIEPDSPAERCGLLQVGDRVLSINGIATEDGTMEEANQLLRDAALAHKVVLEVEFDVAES
Chain of LDB3, O75112 (O75112 1-94): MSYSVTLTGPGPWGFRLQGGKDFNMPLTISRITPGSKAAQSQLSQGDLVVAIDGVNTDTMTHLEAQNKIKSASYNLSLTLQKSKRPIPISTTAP
Chain of GRIP2_6, Q9C0E4 (Q9C0E4 648-740): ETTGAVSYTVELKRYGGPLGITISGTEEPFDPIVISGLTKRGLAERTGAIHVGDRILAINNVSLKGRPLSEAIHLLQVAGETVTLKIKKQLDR
Chain of HTRA2, O43464 (O43464 355-458): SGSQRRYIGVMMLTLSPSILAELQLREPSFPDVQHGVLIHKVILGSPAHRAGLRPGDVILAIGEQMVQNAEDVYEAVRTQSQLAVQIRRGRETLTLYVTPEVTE
Chain of NHERF4_2, Q86UT5 (Q86UT5 220-308): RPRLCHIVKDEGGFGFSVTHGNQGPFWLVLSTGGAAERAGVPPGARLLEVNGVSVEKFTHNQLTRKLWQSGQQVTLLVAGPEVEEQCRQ
Chain of SCRIB_3, Q14160 (Q14160 999-1103): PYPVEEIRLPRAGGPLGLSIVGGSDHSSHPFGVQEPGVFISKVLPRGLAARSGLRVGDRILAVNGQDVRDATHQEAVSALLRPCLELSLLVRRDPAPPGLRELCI
Chain of NOS1, P29475 (P29475 9-101): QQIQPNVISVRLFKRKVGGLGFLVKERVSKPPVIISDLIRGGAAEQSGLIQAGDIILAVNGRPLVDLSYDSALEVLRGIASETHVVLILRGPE
Chain of GRIP2_5, Q9C0E4 (Q9C0E4 544-642): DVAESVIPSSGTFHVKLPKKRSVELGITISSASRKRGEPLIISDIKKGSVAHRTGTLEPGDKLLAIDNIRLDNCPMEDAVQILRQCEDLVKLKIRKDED
Chain of MAGI1_2, Q96QZ7 (Q96QZ7 456-580): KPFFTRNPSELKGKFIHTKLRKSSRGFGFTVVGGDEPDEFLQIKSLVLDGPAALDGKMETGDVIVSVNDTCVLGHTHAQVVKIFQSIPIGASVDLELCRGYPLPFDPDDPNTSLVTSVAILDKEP
Chain of Inadl_10, Q8NI35 (Q8NI35 1673-1763): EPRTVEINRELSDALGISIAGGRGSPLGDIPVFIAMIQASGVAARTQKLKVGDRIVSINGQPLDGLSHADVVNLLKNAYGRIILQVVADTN

B1: TMEM215, Q68D42 (peptide)
chain: QGRWDHETIV
pKd (PARD3_3, Q8TEW0; [1]): 4.47 | pKd (LDB3, O75112; [1]): 3.47 | pKd (GRIP2_5, Q9C0E4; [1]): below the threshold | pKd (Inadl_10, Q8NI35; [1]): 3.64 | pKd (MPP2, Q14168; [1]): below the threshold | pKd (DLG1_1, Q12959; [1]): 4.84 | pKd (MPDZ_10, O75970; [1]): below the threshold | pKd (GORASP1, Q9BQQ3; [1]): 4.15 | pKd (FRMPD1, Q5SYB0; [1]): below the threshold | pKd (DLG3_1, Q92796; [1]): 4.34 | pKd (TX1BP3, O14907; [1]): 4.31 | pKd (SCRIB_3, Q14160; [1]): 4.06 | pKd (APBA2_2, Q99767; [1]): below the threshold | pKd (GRIP2_6, Q9C0E4; [1]): below the threshold | pKd (DLG2_3, Q15700; [1]): 4.53 | pKd (SIPA1L2, Q9P2F8; [1]): below the threshold | pKd (GRIP2_4, Q9C0E4; [1]): below the threshold | pKd (NHERF4_2, Q86UT5; [1]): below the threshold | pKd (GRIP2_7, Q9C0E4; [1]): below the threshold | pKd (MAGI1_2, Q96QZ7; [1]): 3.84 | pKd (NOS1, P29475; [1]): 4.04 | pKd (DVL3, Q92997; [1]): 3.69 | pKd (LNX2_2, Q8N448; [1]): 5.07 | pKd (DFNB31_2, Q9P202; [1]): below the threshold | pKd (LIN7C, Q9NUP9; [1]): 3.88 | pKd (HTRA2, O43464; [1]): 3.68

B2: CES2, O00748 (peptide)
chain: EEPEERHTEL
pKd (PARD3_3, Q8TEW0; [2]): 3.61 | pKd (LDB3, O75112; [2]): below the threshold | pKd (GRIP2_5, Q9C0E4; [2]): below the threshold | pKd (Inadl_10, Q8NI35; [2]): below the threshold | pKd (MPP2, Q14168; [2]): below the threshold | pKd (DLG1_1, Q12959; [2]): below the threshold | pKd (MPDZ_10, O75970; [2]): below the threshold | pKd (GORASP1, Q9BQQ3; [2]): below the threshold | pKd (FRMPD1, Q5SYB0; [2]): below the threshold | pKd (DLG3_1, Q92796; [2]): below the threshold | pKd (TX1BP3, O14907; [2]): below the threshold | pKd (SCRIB_3, Q14160; [2]): 4.89 | pKd (APBA2_2, Q99767; [2]): below the threshold | pKd (GRIP2_6, Q9C0E4; [2]): below the threshold | pKd (DLG2_3, Q15700; [2]): 3.78 | pKd (SIPA1L2, Q9P2F8; [2]): below the threshold | pKd (GRIP2_4, Q9C0E4; [2]): below the threshold | pKd (NHERF4_2, Q86UT5; [2]): below the threshold | pKd (GRIP2_7, Q9C0E4; [2]): below the threshold | pKd (MAGI1_2, Q96QZ7; [2]): below the threshold | pKd (NOS1, P29475; [2]): 3.56 | pKd (DVL3, Q92997; [2]): below the threshold | pKd (LNX2_2, Q8N448; [2]): below the threshold | pKd (DFNB31_2, Q9P202; [2]): below the threshold | pKd (LIN7C, Q9NUP9; [2]): below the threshold | pKd (HTRA2, O43464; [2]): below the threshold

B3: ABRAXAS2, Q15018 (peptide)
chain: DPRNTQTSQI
pKd (PARD3_3, Q8TEW0; [3]): 3.64 | pKd (LDB3, O75112; [3]): below the threshold | pKd (GRIP2_5, Q9C0E4; [3]): below the threshold | pKd (Inadl_10, Q8NI35; [3]): 3.52 | pKd (MPP2, Q14168; [3]): below the threshold | pKd (DLG1_1, Q12959; [3]): 3.49 | pKd (MPDZ_10, O75970; [3]): below the threshold | pKd (GORASP1, Q9BQQ3; [3]): 3.56 | pKd (FRMPD1, Q5SYB0; [3]): below the threshold | pKd (DLG3_1, Q92796; [3]): 3.56 | pKd (TX1BP3, O14907; [3]): 3.71 | pKd (SCRIB_3, Q14160; [3]): 4.01 | pKd (APBA2_2, Q99767; [3]): below the threshold | pKd (GRIP2_6, Q9C0E4; [3]): below the threshold | pKd (DLG2_3, Q15700; [3]): 3.53 | pKd (SIPA1L2, Q9P2F8; [3]): below the threshold | pKd (GRIP2_4, Q9C0E4; [3]): below the threshold | pKd (NHERF4_2, Q86UT5; [3]): below the threshold | pKd (GRIP2_7, Q9C0E4; [3]): 3.55 | pKd (MAGI1_2, Q96QZ7; [3]): 3.52 | pKd (NOS1, P29475; [3]): 3.52 | pKd (DVL3, Q92997; [3]): below the threshold | pKd (LNX2_2, Q8N448; [3]): below the threshold | pKd (DFNB31_2, Q9P202; [3]): 3.62 | pKd (LIN7C, Q9NUP9; [3]): 3.66 | pKd (HTRA2, O43464; [3]): below the threshold
